{"source": "paper PMC7668254", "target": "T1, DROSHA fragment D3;DGCR8 fragment G1 (human;human, UniProt Q9NRR4;Q8WYQ5 390-1365;728-750, |)", "T1 sequence 1": "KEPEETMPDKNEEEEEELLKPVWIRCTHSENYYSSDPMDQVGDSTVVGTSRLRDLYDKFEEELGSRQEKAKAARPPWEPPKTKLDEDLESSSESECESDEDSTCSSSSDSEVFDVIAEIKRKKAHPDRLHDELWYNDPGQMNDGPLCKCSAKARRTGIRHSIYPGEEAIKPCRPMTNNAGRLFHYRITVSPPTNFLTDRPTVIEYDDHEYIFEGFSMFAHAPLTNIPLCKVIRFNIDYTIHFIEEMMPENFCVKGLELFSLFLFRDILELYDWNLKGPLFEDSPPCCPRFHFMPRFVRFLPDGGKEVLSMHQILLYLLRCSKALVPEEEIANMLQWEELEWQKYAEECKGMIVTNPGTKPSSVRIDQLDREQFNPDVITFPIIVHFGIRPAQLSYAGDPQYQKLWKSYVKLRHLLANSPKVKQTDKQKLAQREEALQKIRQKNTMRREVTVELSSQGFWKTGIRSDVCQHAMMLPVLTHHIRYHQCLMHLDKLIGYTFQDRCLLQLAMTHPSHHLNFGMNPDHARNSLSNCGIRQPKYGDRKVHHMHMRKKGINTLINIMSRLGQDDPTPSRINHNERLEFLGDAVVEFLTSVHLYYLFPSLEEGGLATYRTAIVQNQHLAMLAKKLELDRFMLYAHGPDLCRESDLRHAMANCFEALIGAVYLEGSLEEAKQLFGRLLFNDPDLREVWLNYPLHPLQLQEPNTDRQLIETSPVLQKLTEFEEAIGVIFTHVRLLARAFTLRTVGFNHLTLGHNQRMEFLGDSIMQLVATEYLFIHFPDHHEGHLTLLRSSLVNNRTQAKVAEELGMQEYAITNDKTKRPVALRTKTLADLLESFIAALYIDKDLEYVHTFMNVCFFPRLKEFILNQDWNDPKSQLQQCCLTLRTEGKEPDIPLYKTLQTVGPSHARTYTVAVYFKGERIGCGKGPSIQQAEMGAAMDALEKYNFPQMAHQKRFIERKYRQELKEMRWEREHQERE", "T1 sequence 2": "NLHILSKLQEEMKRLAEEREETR", "assay": "EMSA; 2 mM EDTA; 1.5 pmol RNA, 5-25 pmol D3-G1 in 10 uL; 50 mM Tris-HCl pH 7.5, 150 mM NaCl, 0.2 mg/ml BSA, 10% glycerol, 2 mM EDTA, 1 mM DTT; on ice 60 min; 4% native PAGE in 1x TBE at 4 C", "conditions": "protein: recombinant;recombinant; tags: ;; copies: 1;2; hairpin"}
{"binder": "Short pri-mir-146a_C (structured_RNA) RNA: GGAGAACUGAAUUCCAUGGGUUGUGUCAGUGUCAGACCUCUGAAAUUCAGUUCUUCAG", "values": [{"measurement": "binding result", "value": "binds"}]}
